These results are taken from patent US20250269018A1, “COMBINED CANCER THERAPY WITH AN EPITHELIAL CELL ADHESION MOLECULE (EPCAM) INHIBITOR AND A HEPATOCYTE GROWTH FACTOR RECEPTOR (HGFR) INHIBITOR” (ACADEMIA SINICA, priority 2021, published 2025).

The assay deals with HGFR signaling. The assay can be described thus: Western blotting of phosphorylated HGFR, AKT, ERK, FAK in HCT116 cells. Format: cell-based, human. As to conditions: for phosphorylation of HGFR, AKT, and ERK: FIG. 7D. As for the experimental part: FIGS. 2A to 2K. EpEX promotes tumor progression via HGFR signaling. (FIG. 2A) WT or EpCAM knockout (KO) HCT116 and HT29 cells treated with HGF (0.5 nM) for 15 min. The phosphorylation of HGFR, AKT, and ERK was examined by Western blotting. (FIG. 2B) WT or KO HCT116 and HT29 cells were treated with HGF (0.5 nM) with 2% FBS for the indicated times. Cell growth was examined by the WST-1 assay. (FIG. 2C) Starved HCT116 cells were treated with HGFR inhibitor SU11274 (SU, 10 μM) for 1 h then treated with 50 nM of EpEX-His for 15 min. The levels of phosphorylated HGFR, EGFR, AKT, and ERK were examined by Western blotting. HCT116 and HT29 cells were treated with 50 nM EpEX and SU (10 μM). (FIG. 2D) Cell growth was examined by WST-1 assay after treatment for indicated time. (FIG. 2E) HCT116 cells were treated with shLuc or HGFR shRNA then treated with 50 nM of EpEX-His for 15 min. The levels of phosphorylated HGFR, EGFR, ERK, and AKT were examined in HGFR knockdown HCT116 cells by Western blotting. (FIG. 2F) The levels of phosphorylated ADAM17 and presenilin 2 were examined by Western blotting. (FIG. 2G) Active β-catenin nuclear translocation was assay by using Western blotting. (H) HCT116 cells were treated with shLuc or HGFR shRNA then treated with 50 nM of EpEX-His for indicated times. Cell growth was examined by the WST-1 assay. (FIG. 2I) HCT116 cells after shLuc and shHGFR treatment were treated with 50 nM of EpEX-His with 2% FBS for 7 days. Colony formation was examined by crystal violet staining.
FIGS. 6A to 6J. EpAb2-6 inhibits EpCAM and HGFR signaling and promotes active β-catenin and Snail protein degradation via activating GSK3β. (FIG. 6A) HCT116 cells were treated with 10 μg/ml control IgG (normal mouse IgG, NMIgG) or mouse EpAb2-6 (EpAb2-6) for 16 h, followed by treatment with EpEX-His (50 nM) for 15 min. Levels of phosphorylated HGFR, AKT, FAK, GSK3β, ERK, ADAM17, and presenilin 2 were examined by Western blotting. (FIG. 6B) HCT116 cells were treated with 10 μg/ml control IgG or mouse EpAb2-6 for 16 h, followed by treatment without or with HGF (0.5 nM) for 15 min. Levels of phosphorylated HGFR, AKT, and ERK were examined by Western blotting. HCT116 cells were treated with mouse EpAb2-6 (10 μg/ml) and HGF (0.5 nM). (FIG. 6C) Cell migration was examined by the wound healing assay at the indicated times. (FIG. 6D) Cell invasion was assessed by a Transwell assay with matrigel after 24 h. (FIG. 6E) HCT116 cells were treated with NMIgG or EpAb2-6 for 6 h and then immunoprecipitated with anti-EpCAM (IP: EpCAM) or anti-HGFR (IP: HGFR) antibodies, followed by Western blotting. (FIG. 6F) EpEX-His (2 μg/ml) co-treated with 1 μg IgG or EpAb2-6 was added to HGFR-Fc-coated (1 μg/ml) ELISA plates and detected by TMB colorimetric peroxidase assay. (FIG. 6G) EMT associated protein levels were detected by Western blotting in HCT116 cells treated with NMIgG or EpAb2-6 for 24 h. (FIG. 6H) Protein expression was analyzed by Western blotting in HCT116 cells after treatment with EpAb2-6 and 2 μM GSK3β inhibitor (BIO) for 24 h. Quantification of the normalized protein expression in the bottom panel. (FIG. 6I) HCT116 cells were treated with 10 μM MG132 and EpAb2-6 for 6 h before cell collection and subsequent Western blotting. (FIG. 6J) Stability of Snail protein in HCT116 cells treated with NMIgG or EpAb2-6. Cells were treated with cyclohexamide (CHX) 100 μg/ml at the indicated intervals and subjected to Western blotting.
FIGS. 7A to 7G. EpAb2-6 binds EpEX and induces apoptosis by F(ab′)2 and inhibits regulated intramembrane proteolysis (RIP) activation and HGFR signaling. (FIG. 7A) Binding affinity of IgG EpAb2-6 (mouse) and F(ab′)2 to EpEX-His (1 μg/ml) coated overnight was checked using ELISA (OD450). (FIG. 7B) HCT116 cells were treated with 100 μg/ml control IgG, Fc, or F(ab′)2 of EpAb2-6 for 24 h. The apoptotic and necrotic cells were quantified by fluorescein annexin V-FITC/PI double labeling. […]
In general terms: Immunoblotting shows a protein as a band on a membrane.

Where [1] appears, read: HCT116, 10 μg/ml 16 h, then EpEX-His 50 nM 15 min.

For `Cc1[nH]c(C=C2C(=O)Nc3ccc(S(=O)(=O)N(C)c4cccc(Cl)c4)cc32)c(C)c1C(=O)N1CCN(C)CC1` (stereo in doubt) [SU11274, (3Z)-N-(3-Chlorophenyl)-3-({3,5-dimethyl-4-[(4-methylpiperazin-1-yl)carbonyl]-1H-pyrrol-2-yl}methylene)-N-methyl-2-oxo-2,3-dihydro-1H-indole-5-sulfonamide], for the setting “HCT116 cells, SU 10 μM 1 h, then 50 nM EpEX-His 15 min, FIG. 2C”, the “EpEX-mediated ERK and AKT phosphorylation” value was “attenuate EpEX-mediated ERK and AKT phosphorylation”.

For “MT201: human anti-EpCAM antibody, adecatumumab (MT201)”, the “phosphorylation of HGFR, AKT, and ERK” value under setting [1] is given as “did not”.

B1: EpAb2-6: anti-EpCAM neutralizing monoclonal antibody targeting EpEX; VH SEQ ID NO: 15, VL SEQ ID NO: 16 (antibody, listed as Homo sapiens, V domains shown)
VH: VKLQESGPELKKPGETVKISCKASGYTFTDYSMHWVKQAPGKGLKWMGWINTETGEPTYADDFKGRFAFSLETSASTAYLQINNLKNEDTATYFCARTAVYWGQGTTVTVSS
VL: DIQMTQSPSSLSASLGERVSLTCRASQEISVSLSWLQQEPDGTIKRLIYATSTLDSGVPKRFSGSRSGSDYSLTISSLESEDFVDYYCLQYASYPWTFGGGTKLEIKRADAAPTVS
For the molecule B1, the “phosphorylation of HGFR, AKT, and ERK” value under setting [1] was “inhibited phosphorylation of HGFR, AKT, and ERK”. In addition, the “phosphorylation of HGFR, AKT, ERK, and FAK” value (HCT116, 10 μg/ml 16 h, then EpEX-His 50 nM 15 min, vs control IgG, FIG. 6A) was “decreased phosphorylation of HGFR, AKT, ERK, and FAK”. Moreover, the “phosphorylation levels of HGFR, AKT, and ERK” value (HCT116, 10 μg/ml 16 h, without or with HGF 0.5 nM 15 min, FIG. 6B) was “significantly decreased”. The “levels of phosphorylated HGFR” value (after EpAb2-6 treatment, discussion statement) was “decreased levels of phosphorylated HGFR”.
